Values of other authors, collected in article PMC4753134.
pKd: −log10 of the molar value.

What was measured:
[1] = target: EGFR (Homo sapiens) (UniProt P00533)
[2] = target: Met (Homo sapiens) (UniProt P08581)
UniProt P08581, sequence (P08581 25-932): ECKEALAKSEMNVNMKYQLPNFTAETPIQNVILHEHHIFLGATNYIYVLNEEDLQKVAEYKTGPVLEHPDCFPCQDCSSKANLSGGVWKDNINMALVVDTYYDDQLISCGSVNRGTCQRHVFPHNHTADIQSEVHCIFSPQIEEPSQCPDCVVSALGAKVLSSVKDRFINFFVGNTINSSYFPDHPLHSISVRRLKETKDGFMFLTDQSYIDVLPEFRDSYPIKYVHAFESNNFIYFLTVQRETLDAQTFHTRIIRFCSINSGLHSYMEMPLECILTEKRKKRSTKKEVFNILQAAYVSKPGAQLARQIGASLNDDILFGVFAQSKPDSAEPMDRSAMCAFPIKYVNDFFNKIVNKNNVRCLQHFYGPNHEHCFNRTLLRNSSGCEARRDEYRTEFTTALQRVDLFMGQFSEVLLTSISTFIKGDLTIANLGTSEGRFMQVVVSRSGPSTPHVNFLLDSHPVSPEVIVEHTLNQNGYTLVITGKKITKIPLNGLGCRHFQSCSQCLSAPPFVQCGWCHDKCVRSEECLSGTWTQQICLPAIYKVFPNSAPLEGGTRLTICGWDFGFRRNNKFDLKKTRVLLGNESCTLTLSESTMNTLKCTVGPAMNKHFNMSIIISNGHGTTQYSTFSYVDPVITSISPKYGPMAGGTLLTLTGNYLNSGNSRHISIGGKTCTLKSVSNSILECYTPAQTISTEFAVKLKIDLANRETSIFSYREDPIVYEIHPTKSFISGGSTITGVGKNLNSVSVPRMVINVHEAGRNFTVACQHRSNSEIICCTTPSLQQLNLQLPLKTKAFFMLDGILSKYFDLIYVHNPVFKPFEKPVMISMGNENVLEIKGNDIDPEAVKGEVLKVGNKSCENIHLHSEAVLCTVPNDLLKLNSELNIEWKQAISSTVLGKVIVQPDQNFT

decorin (from UniProt P07585)
pKd [1]: 7.06
pKd [2]: 8.70
